According to US20250382602:
Residue numbers refer to the chain shown, from its start.

Experiments:
[1] = target: T1, Dda 1993 N221E N221E (Enterobacteria phage T4) (UniProt P32270); conditions: nanopore translocation, PromethION; background mutations not given
T1 sequence: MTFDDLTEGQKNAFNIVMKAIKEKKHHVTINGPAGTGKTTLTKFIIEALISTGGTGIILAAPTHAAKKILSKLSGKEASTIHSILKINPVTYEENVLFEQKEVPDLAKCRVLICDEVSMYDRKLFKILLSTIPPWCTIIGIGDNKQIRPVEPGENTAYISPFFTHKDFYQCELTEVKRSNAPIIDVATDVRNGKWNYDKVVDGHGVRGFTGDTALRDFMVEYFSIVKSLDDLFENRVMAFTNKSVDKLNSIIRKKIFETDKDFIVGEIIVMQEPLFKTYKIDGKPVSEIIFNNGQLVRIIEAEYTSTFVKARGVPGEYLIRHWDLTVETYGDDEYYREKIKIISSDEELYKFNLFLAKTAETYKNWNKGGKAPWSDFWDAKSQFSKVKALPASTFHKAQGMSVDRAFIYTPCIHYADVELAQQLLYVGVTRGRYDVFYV

[2] = target: T2, Dda 1993 Y350E Y350E (Enterobacteria phage T4) (UniProt P32270); conditions: nanopore translocation, PromethION; background mutations not given
T2 sequence: T1 sequence with E221N, Y350E

[3] = target: T3, Dda 1993 T55K T55K (Enterobacteria phage T4) (UniProt P32270); conditions: nanopore translocation, PromethION; background mutations not given
T3 sequence: T1 sequence with T55K, E221N

[4] = target: T4, Dda 1993 T210K T210K (Enterobacteria phage T4) (UniProt P32270); conditions: nanopore translocation, PromethION; background mutations not given
T4 sequence: T1 sequence with T210K, E221N

[5] = target: T5, Dda 1993 C114G C114G (Enterobacteria phage T4) (UniProt P32270); conditions: nanopore translocation; background mutations not given
T5 sequence: T1 sequence with C114G, E221N

[6] = target: T6, Dda 1993 C114S C114S (Enterobacteria phage T4) (UniProt P32270); conditions: nanopore translocation; background mutations not given
T6 sequence: T1 sequence with C114S, E221N

barcoded 3.6 kb DNA analyte ligated to sequencing Y adaptor
activity (bps speed delta vs control) [1]: 4.37 | activity (bps speed delta vs control) [2]: 6.06 | activity (bps speed delta vs control) [3]: 8.29 | activity (bps speed delta vs control) [4]: 0.52 | activity (bps speed delta vs control) [5]: -11.3 | activity (bps speed delta vs control) [6]: -7.28
